Experimental data taken from patent publication US20220008548A1.

Molecular target: IL-4R (UniProt P24394)
Experiment: cell-based or functional assay

- attenuation of IL-4R activity beyond the control constructs: > 10%
B1: anti-IL-4R:anti-CD63 conjugate (streptavidin-conjugated anti-IL-4R antibody combined 1:1 with biotinylated anti-CD63 antibody MEM-259) (protein, part only; not given: anti-CD63 antibody MEM-259, part only)
VH: EVQLVESGGGVVQPGRSLRLSCVASGFTFSDYGMHWVRQAPGKGLEWVAVIWYDGSIKYFRDSVKGRFTISRDNSKNTLYLQMNSLRVEDTAHYYCAKESSSWYFYHGLDVWGQGTMVTVSS
VL: EIVMTQSPLSLPVSPGEPASISCRSNQSLLHSNGNNYLAWYLQKPGQSPHLLIYLGSNRASGVPDRFSGSGSGTDFTLKISRVEAGDVGTYFCMQSLQAPPFTFGPGTKVEIKR
modifications: antibody conjugated to streptavidin
